Test results taken from the supplement of paper PMC9170038.

Test system: MS2 coat protein
Experiment: apparent KD of MS2 coat protein; designed switch direction (-1 OFF switch, 1 ON switch): -1; higher = weaker reporter binding
Summary of the method: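 For each design, the apparent KD is the median over clusters of curves fitted to normalised cluster fluorescence. Clusters held RNA switches with common flanks, transcribed on Illumina chips by stalled E. coli RNA polymerase. These were titrated with SNAP-549-labelled MS2 coat protein, doubling from 0.7 or 1.5 nM to 3 µM, without input, with 200 uM small-molecule ligand, or with an oligonucleotide input.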

[1] = Eterna round: R95, input ligand: FMN 200 uM
[2] = Eterna round: R95, input ligand: microRNA oligo, concentration not stated
[3] = Eterna round: R95, input ligand: none
[4] = input ligand: microRNA oligo, concentration not stated

UUCACAUGGACAUAAGAUCACAUGAGGAUCACCCAUGUGAAUAACAAGCUUUUUGCUCGUCUUAUGUCCAAUAAUAA [Stov1/14-A1] (Eterna round: R97, puzzle: Sensor, turn-off variant 1)
apparent KD of MS2 coat protein (input ligand: FMN 200 uM): 14.1 nM
apparent KD of MS2 coat protein (input ligand: none): 12.2 nM

ACAAGCUUUUUGCUCGUCUUGUAGAAACGUGAGAGCGAGACAUGAGGAUCACCCAUGUAAAGGCAGUAGGUGGAGAU [JR_SV3TOV2_Sub026] (puzzle: Sensor v3, turn-off variant 2)
apparent KD of MS2 coat protein [1]: 36.9 nM
apparent KD of MS2 coat protein [2]: 64.4 nM
apparent KD of MS2 coat protein [3]: 58.2 nM

CGAUAAUCCAAGGAUAUGCUAGACGAAAGUCUAGCAGAAGGUGGAACAUGAGGAUCACCCAUGUGUCCAAAUCG [Mat - Exclusion 6 - Eli Mod - D27] (Eterna round: R97, puzzle: Exclusion 6)
apparent KD of MS2 coat protein (input ligand: FMN 200 uM): 22.2 nM
apparent KD of MS2 coat protein (input ligand: none): 14.7 nM

AUCCUUAACAAGGAUAUCGGGCGGGAAAUUGUUUGAGAAGGUGUAACAUGAGGAUCACCCAUGUUAAACGUGGA [-18.8, -18.6 kcal, A 32%] (Eterna round: R97, puzzle: Exclusion 6)
apparent KD of MS2 coat protein (input ligand: FMN 200 uM): 22.3 nM
apparent KD of MS2 coat protein (input ligand: none): 23.4 nM

UUAUAGUGAGGAUAUAUAUGCAGUAAACCUUUAAAUUUAUAACUUGAGGAUCACCCAAGUAGAAGGCGCGUUAU [JR_Ex2_Sub054] (Eterna round: R97, puzzle: Exclusion 2)
apparent KD of MS2 coat protein (input ligand: FMN 200 uM): 15.3 nM
apparent KD of MS2 coat protein (input ligand: none): 16.9 nM

GCAGCAACUCUAAUCAAAUCAACAUGAGGAUCACCCAUGUCUCAGGAUAUGGUCUGGAUUACAGGCCAGAAGGGAGAAAGCUGC [Eli exng3 - 048] (Eterna round: R96, puzzle: Exclusion NG 3)
apparent KD of MS2 coat protein (input ligand: FMN 200 uM): 16.5 nM
apparent KD of MS2 coat protein [4]: 13.9 nM
apparent KD of MS2 coat protein (input ligand: none): 16.6 nM

CAUGAUCUUCGGAUCAUGUACAUGAGGAUCACCCAUGUUACGAGCAGAUUUUCAUACAAGCUUUUUGCUCGUCUUAU [Sensor v3 - Turn-off variant 1 - 31] (puzzle: Sensor v3, turn-off variant 1)
apparent KD of MS2 coat protein [1]: 27.6 nM
apparent KD of MS2 coat protein [2]: 67.3 nM
apparent KD of MS2 coat protein [3]: 28.7 nM

CCCAGGGCAGGAUAUAGAGGGCGAAACAUGAGGAUCACCCAUGUGACCUCGGAACAGCUGCUAGAAGGGCCAAAUU [Beesquti] (puzzle: Exclusion 5)
apparent KD of MS2 coat protein [1]: 21.1 nM
apparent KD of MS2 coat protein [2]: 14.8 nM
apparent KD of MS2 coat protein [3]: 15.3 nM

UUUCGGCAUGUAGGAUAUGGGUCCGAUUAGGAUUUAGAAGGACAUGAGGAUCACCCAUGUGCAUUUAAUUGGUCAUUACCGUUU [EXclNG1-LROPPY09] (Eterna round: R96, puzzle: Exclusion NG 1)
apparent KD of MS2 coat protein (input ligand: FMN 200 uM): 86.7 nM
apparent KD of MS2 coat protein [4]: 47.8 nM
apparent KD of MS2 coat protein (input ligand: none): 66 nM

GGCGUGUCGCGAGGAUAUUCAAACGGACAUGAGGAUCACCCAUGUGAAAGGAAUGUCGAGGUUAUGGAGAAGGCGUUCACGCCG [Qubizace] (Eterna round: R96, puzzle: Exclusion NG 2)
apparent KD of MS2 coat protein (input ligand: FMN 200 uM): 549 nM
apparent KD of MS2 coat protein [4]: 92 nM
apparent KD of MS2 coat protein (input ligand: none): 153 nM

CAGUACUGAGGAUAUACAUGAGGAUCACCCAUGUCUUAAAAGUAGGAUACUACUAUUAGUAGAAGGCAGUACUG [Fiskers Ex 3 828 mod 24] (Eterna round: R96, puzzle: Exclusion 3)
apparent KD of MS2 coat protein (input ligand: FMN 200 uM): 38.5 nM
apparent KD of MS2 coat protein [4]: 12.3 nM
apparent KD of MS2 coat protein (input ligand: none): 17 nM

AAAGUUCGAGGAUAUCUACUUAGCUACAUGAGGAUCACCCAUGUUAUCCUCCCGCUGGGAAGAGAAGGCGGUUAAA [Xeonceso] (puzzle: Exclusion 5)
apparent KD of MS2 coat protein [1]: 186 nM
apparent KD of MS2 coat protein [2]: 41.7 nM
apparent KD of MS2 coat protein [3]: 41.7 nM

AUACCACGAGGAUAUCGUCUCUCCCACAUGAGGAUCACCCAUGUUAUCCAUGUUUCGUUUCGAGAAGGCGUGGGUU [JR_E5_Sub072] (puzzle: Exclusion 5)
apparent KD of MS2 coat protein [2]: 58.7 nM

UUAAAUCAUGUAGGAUAUGCUUUGCGAAGCGAGGCAGAAGGACAUGAGGAUCACCCAUGUGCUAGCGUCCGCGUACGGAUGCAA [Mat - Exclusion NG 1 - Mod of JL - D61] (Eterna round: R96, puzzle: Exclusion NG 1)
apparent KD of MS2 coat protein (input ligand: FMN 200 uM): 166 nM
apparent KD of MS2 coat protein [4]: 57.3 nM
apparent KD of MS2 coat protein (input ligand: none): 83 nM

AAGAAACAUGAGGAUCACCCAUGUGAGGAUAUGAAAAAGAAAAUAAAAUAAAUAAGAAUCAGAAGGCACAAAGG [Mat - Mod of Hog D5] (puzzle: Exclusion 1)
apparent KD of MS2 coat protein [1]: 40.6 nM
apparent KD of MS2 coat protein [2]: 45.5 nM
apparent KD of MS2 coat protein [3]: 40.2 nM

UUUUUGUGAGGAUAUGCAAUAUCUUCUAUUUAUUAUUAAUUGCAGAAGGCACAUGAGGAUCACCCAUGUAUUUU [Ex4 - 3 - 36] (puzzle: Exclusion 4)
apparent KD of MS2 coat protein [2]: 20.5 nM

GAAUGAGAGCAGGAUAUCUUAUAAGUGUAUGAAAGAGAAGGGCUCACAUGAGGAUCACCCAUGUGGUCCUAGAU [jl-ex6-4.86 jandersonlee mod] (Eterna round: R97, puzzle: Exclusion 6)
apparent KD of MS2 coat protein (input ligand: FMN 200 uM): 329 nM
apparent KD of MS2 coat protein (input ligand: none): 41.7 nM

UAAUGCAAGUAAAGAUCCUACAUGAGGAUCACCCAUGUGCUCGUCUUAUAAAGUACUAUCACGAAAGUGAUAGUACA [Mat - Sensor v3 - turn-off var 1 - Eli Mod - D83] (puzzle: Sensor v3, turn-off variant 1)
apparent KD of MS2 coat protein [1]: 385 nM
apparent KD of MS2 coat protein [2]: 31.8 nM
apparent KD of MS2 coat protein [3]: 167 nM

AGUACUAACACGCUAGUGUUAGUACAAUAAGCUUGUGAAACAUGAGGAUCACCCAUGUCCUCAUAAGCUCGUCUUAU [salish99_TOv2_r3_058] (puzzle: Sensor v3, turn-off variant 2)
apparent KD of MS2 coat protein [1]: 16.4 nM
apparent KD of MS2 coat protein [2]: 612 nM
apparent KD of MS2 coat protein [3]: 16.1 nM

AGGUGUAGAGGAUAUCUAUCCUCGCACAUGAGGAUCACCCAUGUCCUGGUCACCAAGGACGGAGAAGGCUACACCA [Omei Ex5 D20] (Eterna round: R97, puzzle: Exclusion 5)
apparent KD of MS2 coat protein (input ligand: FMN 200 uM): 427 nM
apparent KD of MS2 coat protein (input ligand: none): 773 nM

UUGCAGUCGUCAGGAUAUAGUAUUACGGCCUUUCAUUUCUUCAUACAUGAGGAUCACCCAUGUCGCUAGAAGGGAUUAUCGAUU [salish99_ExNG2_r04_106] (Eterna round: R96, puzzle: Exclusion NG 2)
apparent KD of MS2 coat protein (input ligand: FMN 200 uM): 16 nM
apparent KD of MS2 coat protein [4]: 17.1 nM
apparent KD of MS2 coat protein (input ligand: none): 23 nM

UUUAUAUAUGAAGGAUAUACUUAACAUGAGGAUCACCCAUGUGGUGUUGUGAGUGAGUGAGUUUAGUAGAAGGUCAAUUCUUUU [JMF's solution 91] (Eterna round: R96, puzzle: Exclusion NG 2)
apparent KD of MS2 coat protein (input ligand: FMN 200 uM): 731 nM
apparent KD of MS2 coat protein [4]: 335 nM
apparent KD of MS2 coat protein (input ligand: none): 362 nM

AAACCCUGAGGAUAUGCAUAACAACAAAGCCUCACGUGCCAACAUGAGGAUCACCCAUGUAGAAGGCGGGCCAA [Mod R3 Insanara 18 - Jieux - Exclusion 2] (Eterna round: R97, puzzle: Exclusion 2)
apparent KD of MS2 coat protein (input ligand: FMN 200 uM): 24.3 nM
apparent KD of MS2 coat protein (input ligand: none): 15.7 nM

UAAAAGCUAGGAUAUAGAGACAGAAACUUGAGGAUCACCCAAGUGAGUCAAGCUAUGUCGCUAGAAGGAGCGAAAA [Qubetizaa] (Eterna round: R97, puzzle: Exclusion 5)
apparent KD of MS2 coat protein (input ligand: FMN 200 uM): 278 nM
apparent KD of MS2 coat protein (input ligand: none): 32 nM

AGCCUAGCAGGAUAUGCCCGGGAUAACAUGAGGAUCACCCAUGUGACCGAUUGAUGUCCUGCAGAAGGGCUAGGGA [JL-EX5-4.00 ViennaUCT mod] (Eterna round: R97, puzzle: Exclusion 5)
apparent KD of MS2 coat protein (input ligand: FMN 200 uM): 20.9 nM
apparent KD of MS2 coat protein (input ligand: none): 18.5 nM

GGUGCGUCUGUGAGGAUAUGCUGGUCCUUGGAUCAGCAGAAGGCACAUGAGGAUCACCCAUGUGGUGUCGUACC [salish99_Bmod_Ex4_028] (puzzle: Brourd's mod of Exclusion 4)
apparent KD of MS2 coat protein [2]: 143 nM

UGAUCUUUUGUUAGGAUAUGCUGUUUUUUUUUUCAGCAGAAGGGACAUGAGGAUCACCCAUGUUUUGUCAUAAA [Magic-06] (puzzle: Brourd's mod of Exclusion 4)
apparent KD of MS2 coat protein [2]: 14.4 nM

CCAUGCACGCUGCGGUCCUACAUGAGGAUCACCCAUGUGGUCUGGUGGCGUGGGUCGCCGGACUUGGCUCGUCUUGA [salish99_S_TOV1_R5_022] (Eterna round: R97, puzzle: Sensor, turn-off variant 1)
apparent KD of MS2 coat protein (input ligand: FMN 200 uM): 25.6 nM
apparent KD of MS2 coat protein (input ligand: none): 24.7 nM

GUCGUGCGGCAGUGCUGUACGAGUACAUGAGGAUCACCCAUGUAGGAUAUGGUUCGUUUUGCGUGCUAGAAGGGCGUGCGUUGG [Excl-NG3-LRO21] (Eterna round: R96, puzzle: Exclusion NG 3)
apparent KD of MS2 coat protein (input ligand: FMN 200 uM): 19.3 nM
apparent KD of MS2 coat protein [4]: 16.3 nM
apparent KD of MS2 coat protein (input ligand: none): 21.4 nM

AAUUUUUAUGUAAGGAUAUAAGUUUGGAAACGGGCUUAGAAGGUACAUGAGGAUCACCCAUGUAUAAUGUGCGU [-20.6, -20.4 kcal, 32% A] (Eterna round: R97, puzzle: Brourd's mod of Exclusion 4)
apparent KD of MS2 coat protein (input ligand: FMN 200 uM): 52 nM
apparent KD of MS2 coat protein (input ligand: none): 23.2 nM

CACCUCGUAGCAGGAUAUUAGAGCUUCCGCAAAUGAGAAGGGCUACGAAACACUUGAGGAUCACCCAAGUACCGUGGUCCUCUA [Mutated MS2 EX1.11] (Eterna round: R96, puzzle: Exclusion NG 1)
apparent KD of MS2 coat protein (input ligand: FMN 200 uM): 19.7 nM
apparent KD of MS2 coat protein [4]: 14 nM
apparent KD of MS2 coat protein (input ligand: none): 22.3 nM

GCAGGAUAAGUGAGGAUAUACCUCUGGAUACAGAGGUAGAAGGUACAUGAGGAUCACCCAUGUCUAUAACCUGC [Fiskers BMX 4 - 80] (puzzle: Brourd's mod of Exclusion 4)
apparent KD of MS2 coat protein [2]: 12.9 nM

UUCAUGUGAGGAUAUGUGCAAGACCUAGAGAUUGGGUUUUCACAGAAGGCACAUGAGGAUCACCCAUGUGUUAC [Eternabot (L2) Solution 23] (Eterna round: R97, puzzle: Exclusion 4)
apparent KD of MS2 coat protein (input ligand: FMN 200 uM): 232 nM
apparent KD of MS2 coat protein (input ligand: none): 126 nM
